# Results reported in paper doi:10.1101/2024.04.30.591854 (2024).
# Positions count from the first letter of the chain named.
# B1: KIR2DL1-Fc fusion protein (Fc fusion)
# chain: HEGVHRKPSLLAHPGRLVKSEETVILQCWSDVMFEHFLLHREGMFNDTLRLIGEHHDGVSKANFSISRMTQDLAGTYRCYGSVTHSPYQVSAPSDPLDIVIIGLYEKPSLSAQLGPTVLAGENVTLSCSSRSSYDMYHLSREGEAHERRLPAGPKVNGTFQADFPLGPATHGGTYRCFGSFHDSPYEWSKSSDPLLVSVTGNPSNSWPSPTEPSSKTGNPRHLH
# B2: KIR2DS1-Fc fusion protein (Fc fusion)
# chain: B1 chain with T70K, V90L, L114P, P154T, D163N, H182R, K216E
# Biological target: HLA-Cw4-β2m complex refolded with peptide (human | )
# Assay: SPR
row,Binder,Kd
1,B1,6 µM
2,B2,23 µM
